Measured values taken from doi:10.1101/2024.01.05.574328.

Target: AcrIF25 (A. baumannii)
Test: cross-linking

AcrIF25 (natural protein) showed a stoichiometry N of 2.
